These results are taken from patent publication US20210292393A1 (published 2021).

Test [1] has as its target 2019 nCoV Spike Protein (RBD, His tag) (SARS-CoV-2, UniProt P0DTC2 329-520). Briefly: HT-SPR (Carterra LSA), mAb on chip, RBD (His tag) in solution, 25 C.
Test [2] concerns the target NCP-CoV (2019-nCoV) Spike Protein (S1 Subunit, His Tag) (SARS-CoV-2, UniProt P0DTC2 16-685). Briefly: HT-SPR (Carterra LSA), mAb on chip, S1 subunit (His tag) in solution, 25 C.
Test [3] has as its target T1, SARS-CoV-2 spike protein (nCoV-S Spike Protein Trimer, NIH) (SARS-CoV-2, UniProt P0DTC2 14-1208).
T1 construct: also called S protein
Briefly: HT-SPR (Carterra LSA), mAb on chip, SARS-CoV-2 spike protein titrated, 25 C.

The target in test [4] is T1, SARS-CoV-2 spike protein (nCoV-S Spike …). Briefly: HT-SPR (Carterra LSA), mAb on chip, SARS-CoV-2 spike protein titrated, 37 C.
For test [5], the target named is T2, SARS-CoV-2 full length spike protein (wild type) (SARS-CoV-2, UniProt P0DTC2 14-1208).
T2 construct: also called SARS-CoV-2 spike; S protein
Briefly: multiplexed bead assay, flow cytometry; column D. (In general: Flow cytometry measures light scatter and fluorescence of single cells or particles in a stream.)

Test [6] has as its target SARS-CoV-2 full length spike protein, wild type, expressed on the surface of transiently transfected CHO cells (SARS-CoV-2, UniProt P0DTC2 14-1273).
In another test the target is SARS-CoV-2 spike protein (SARS-CoV-2, UniProt P0DTC2 14-1208). The experiment in a line: HT-SPR, Carterra LSA; mAb coupled to chip, antigen injected; 1:1 fit.

B1: antibody 494 (antibody, V domains shown)
VH: EVQLVESGGGLVQPGGSLRLSCAASGFTVSSNYMSWVRQAPGKGLEWVSVIYSGGSTFYADSVKGRFTISRDNSKNTLYLQMNSLRAEDTAVYYCARDSGDQLLDYWGQGTLVTVSS
VL: DIQLTQSPSFLSASVGDRVTITCRASQGISSYLAWYQQKPGKAPKLLIYAASTLQSGVPSRFSGSGSGTEFTLTISSLQPEDFATYYCQQLNSYPPFTFGPGTKVDIKR
The Kd is the free concentration of one partner at which half of the binding sites on the other are occupied at equilibrium, for simple one-to-one binding. A high value points to a looser complex. B1: the equilibrium dissociation constant (Kd) was determined as 13.5 nM in test [1], 189 nM in test [2], 0.0835 nM in test [3] and 0.225 nM in test [4].

B2: antibody 332 (antibody, V domains shown)
VH: QVTLRESGPALVKPTQTLTLTCTFSGFSLSTSGMCVSWIRQPPGKALEWLALIDWDDDKYYSTSLKTRLTISKDTSKNQVVLTMTNMDPVDTATYYCARIHDDILTGYHYVDYWGQGTLVTVSS
VL: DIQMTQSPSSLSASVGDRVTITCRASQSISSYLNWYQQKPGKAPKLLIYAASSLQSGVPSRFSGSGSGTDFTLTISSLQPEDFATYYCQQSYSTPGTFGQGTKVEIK
For B2, the binding result in test [5] is listed as “no binding”.

B3: antibody 422 (antibody, V domains shown)
VH: QVQLVQSGSELKKPGASVKVSCKASGYTFTSYAMNWVRQAPGQGLEWMGWINTNTGNPTYAQGFTGRFVFSLDTSVSTTYLQISSLKAEDTAVYYCARVIGVVTYYYYGMDVWGQGTTVTVSS
VL: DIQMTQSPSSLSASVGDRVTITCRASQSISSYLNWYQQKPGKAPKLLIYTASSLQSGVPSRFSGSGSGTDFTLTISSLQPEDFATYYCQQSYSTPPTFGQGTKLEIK
In the case of B3, the “median fluorescence fold over isotype control” value (“median fluorescence fold” below) in test [6] was determined as 19.6 fold over isotype.

B4: antibody 343 (antibody, V domains shown)
VH: QVQLVESGGDVVQPGTSLRLSCAASGFTFNNYGFHWVRQAPGKGLEWVALISSDGASTHYADSVKGRFTISRDSSVNTLYLQMNSLSLEDTAVYYCATGHCGTTCYYFDYWGQGTLVSVSS
VL: DIQVTQSPSYLSASVGDRVTITCRASQTISTFLQWYQQKVGKAPKLLIYAASTLQSGVPSRFSGSGSGTDFSLTISSLQPEDFATYYCQQSYSAPLSFGGGTKVEIK
Consider B4, for which, in test [5], the binding result is listed as “no binding”.

B5: antibody 423 (antibody, V domains shown)
VH: EVQLVESGGGLIQPGGSLRISCAASGFTVRNNHMSWVRQAPGKGLEWVSVFYRGGTTYYADSVKGRFTISRDDSKNTVDLQMNSLRGEDTAVYYCARGLSVAASGYFDCWGQGTLVTVSS
VL: DIQMTQSPSSVSASVGDTVTITCRANQGISSWLAWYQQVPGKAPELLIYATSTLQSGVPSRFSGSGSGTDFTLTISSLQPEDFATYYCQQANSFPFTFGPGTKVDIK
Consider B5, for which the “median fluorescence fold” value in test [6] was 14.6 fold over isotype.

B6: antibody 462 (antibody, V domains shown)
VH: QVQLVESGGGVVQPGRSLRLSCAASGFTFSSYGMHWVRQAPGKGLEWVAVIWYDGNNKYYADSVKGRFTISRDNSKNTLYLQMNSLRAEDTAVYYCAKDPTWFGELPSYYYYGMDVWGQGTTVTVSS
VL: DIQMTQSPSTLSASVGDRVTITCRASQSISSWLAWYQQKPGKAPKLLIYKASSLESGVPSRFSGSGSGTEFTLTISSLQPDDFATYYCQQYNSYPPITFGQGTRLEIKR
Turning to B6, the dissociation constant Kd in test [3] is 7.58 nM; in test [4], 4.62 nM.

B7: antibody 364 (antibody, V domains shown)
VH: EVQLVESGGGLVQPGRSLRLSCTASGFTFGDYAMSWFRQAPGKGLEWVGFIRSKAYGGTTEYAASVKGRFTISRDDSKSIAYLQMNSLKTEDTAVYYCTRFGIDYDYIWGSYRYTTLFDYWGQGTLVTVSS
VL: not shown
With B7, the Kd in test [3] came out at 7.61 nM; in test [4], 0.0233 nM.

B8: antibody 570 (antibody, V domains shown)
VH: QVQLQESGPGLVKPSQTLSLTCTVSGGSISSGSYYWSWIRQPAGKGLEWIGRIYTSGSTNYNPSLKSRVTISVDTSKNQFSLKLSSVTAADTAVYYCAREGQWLYRFDYWGQGTLVTVSS
VL: not shown
The koff is a measure of how fast the partners let go of each other. Broadly, the kon is the second-order rate constant of association. A higher kon goes with faster complex formation. In the test with SARS-CoV-2 spike protein, B8 yielded a dissociation constant (Kd) of 0.0454 nM, a koff of 1e-05 s⁻¹ and a kon of 220000 M⁻¹ s⁻¹.

B9: antibody 414 (antibody, V domains shown)
VH: QVQLVQSGAEVKKPGASVKVSCKASGYTFTSYYMHWVRQAPGQGLEWMGIINPSGGSTSYAQKFQGRVTMTRDTSTSTVYMELSSLRSEDTAVYYCARDPPGRDFWSGYYFGAPDYYYYYGMDVWGQGTTVTVSS
VL: DIQMTQSPSSLSASVGDRVTITCRASQGISNYLAWFQQKPGKAPKSLIYAASSLQSGVPSKFSGSGSGTDFTLTISSLQPEDFATYYCQQYNSYPYTFGQGTKLEIKR
As for B9, the results for the dissociation constant (Kd) in test [3] and in test [4] were 7.93 nM and 5.21 nM, respectively.

B10: antibody 328 (antibody, V domains shown)
VH: QVQLQESGPGLVKPSGTLSLTCAVSGGSISSSNWWSWVRQPPGKGLEWIGEIYHSGSTNYNPSLKSRVTISVDNSKNQFSLKLSSVTAADTAVYYCARESVAAAGISYYYYGMDVWGQGTTVTVSS
VL: DIQMTQSPSSLSASVGDRVTITCRASQGIRNDLGWYQQKPGKAPKRLIYAASSLQSGVPSRFSGSGSGTEFTLTVSGLQPEDFATYYCLQYNSSPLTFGGGTKVEIK
Turning to B10, the binding result in test [5] was “no binding”.

B11: antibody 408 (antibody, V domains shown)
VH: QVQLVESGGGVVQPGRSLRLSCAASGFTFSSYAMHWVRQAPGKGLEWVAVISYDGSNKYYADSVKGRFTISRDNSRNTLYLQMNSLRAEDTAVYYCAKGADTPHYSGYDFLSVGYYYYGMDVWGQGTTVTVSS
VL: DIQMTQSPSSLSASVGDRVTITCRASQSISSYLNWYQQKPGKAPKLLIYAASSFQSGVPSRFSGSRSGTDFTLTISSLQPEDFATYYCQQSYSAPFTFGPGTKVDIKR
In test [2], B11 had a dissociation constant (Kd) of 171 nM.

B12: antibody 351 (antibody, V domains shown)
VH: HVQLVESGGGVVQPGRSLRLSCAASGFISRNYGMEWVRQAPGQGLEWVAGIWYDGSKKYYADSVKGRFTISRDTSKNTLFLQMDSLRAEDTAVFYCATATKTFCGGDCPPGGMDVWGQGTTVTVST
VL: SYVLTQPPSVSVAPGKTAWITCVGNNIESESVHWYQQRPGQAPVLVIYYDSDRPSGIPERFFGSNSGNTATLTISRVEAGDEADYYCQVWDSNSDLMVFGGGTKLTVL
As to B12, in test [5], the binding result is reported as “no binding”.

B13: antibody 574 (antibody, V domains shown)
VH: QVQLVESGGGVVQPGRSLRLSCAASGFTFSSYAMHWVRQAPGKGLEWVAVISYDGSNKYYADSVKGRFTISRDNSKNTLYLQMNSLRAEDTAVYYCARTDRYYGSGAHFDYWGQGTLVTVSS
VL: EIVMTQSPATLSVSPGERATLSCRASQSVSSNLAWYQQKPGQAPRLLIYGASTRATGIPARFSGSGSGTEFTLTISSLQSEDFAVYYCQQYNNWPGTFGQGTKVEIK
In the test with SARS-CoV-2 spike protein, B13 showed a Kd of 2.28 nM, a koff of 0.0003 s⁻¹ and an association rate constant (kon) of 132000 M⁻¹ s⁻¹.

B14: antibody 292 (antibody, V domains shown)
VH: EVQLVESGGGLIQPGGSLRLSCAASGFTVSSNYMSWVRQAPGKGLEWVSVIYSGGSTYYADSVKGRFTISRDNSKNTLYLQMNSLRAEDTAVYYCARDLQGGGGPWGQGTLVTVSS
VL: AIQMTQSPSSLSASVGDRVTITCRASQGIRNDLGWYQQKPGKAPKLLIYAASSLQSGVPSRFSGSGSGTDFTLTISSLQPEDFATYYCLQDYNYPRTFGQGTKVEIKR
As for B14, the equilibrium dissociation constant (Kd) in test [1] is 6.78 nM; in test [2], 118 nM; in test [3], 0.0608 nM; in test [4] it was 0.0786 nM.

B15: antibody 481 (antibody, V domains shown)
VH: EVQLVESGGGLIQPGGSLRLSCAASGFTVSSNYMSWVRQAPGKGLEWVSVIYSGGSTFYADSVKGRFTISRDNSKNTLYLQMNSLRAEDTAVYYCAREVAGTYDYWGQGTLVTVSS
VL: DIQMTQSPSSVSASVGDRVTITCRASQGISSWLAWYQQKPGKAPKLLIYAASSLQSGVPSRFSGSGSGTDFTLTISSLQPEDFATYYCQQANSFPGGTFGPGTKVDIKR
Turning to B15, the Kd turned out to be 14.1 nM in test [1], 170 nM in test [2], 0.118 nM in test [3] and 0.234 nM in test [4].

B16: antibody 333 (antibody, V domains shown)
VH: QVHLVESGGGVVLPGRSLRLSCSASQFIFSNYDMHWVRQSPGMGLEWVAGISSDGSDKYYIDSVRGRFTISRDNAKNTLFLQMNSLTTEDTAVYSCAKGGGKFGQYWGRGTLVTVSS
VL: AIQMTQSPSSLSASVGDRVTITCRASQVIRNDLAWFQQKPGEAPNLLVYSASNLQSGVPSRFSGSGSGTDFTLTISSLQPEDFATYYCLQDYSYPYTFGQGTKLDMK
Regarding B16, the binding result in test [5] is “no binding”.

B17: antibody 419 (antibody, V domains shown)
VH: QVQLVQSGAEVKKPGASVKVSCKASGYTFTSYYMHWVRQAPGQGLEWMGIINPSGGSTSYAQKFQGRVTMTRDTSTSTVYMELSSLRSEDTAVYYCARDWTQSSGYDYYYGLDVWGQGTTVTVSS
VL: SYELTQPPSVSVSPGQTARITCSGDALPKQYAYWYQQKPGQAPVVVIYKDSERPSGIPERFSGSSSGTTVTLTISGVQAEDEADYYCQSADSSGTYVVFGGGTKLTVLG
Consider B17, for which the dissociation constant (Kd) in test [2] came out at 235 nM.

B18: antibody 445 (antibody, V domains shown)
VH: QVQLVQSGAEVKKPGASVKVSCKASGYTFTSYYMHWVRQAPGQGLEWMGIINPSGGSTSYAQKFQGRVTMTRDTSTSTVYMELSSLRSEDTAVYYCARDPTEVGATSEYYYYGMDVWGQGTTVTVSS
VL: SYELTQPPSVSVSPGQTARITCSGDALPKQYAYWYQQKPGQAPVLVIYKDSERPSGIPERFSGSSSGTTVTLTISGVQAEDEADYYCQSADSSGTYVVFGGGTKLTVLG
On to B18, for which, in test [2], the Kd was determined as 613 nM.

B19: antibody 431 (antibody, V domains shown)
VH: QVQLVESGGGVVQPGRSLRLSCAASGFTFSSYAMHWVRQAPGKGLEWLAVISYDGSNKYYADSVKGRFTISRDNSKNTLYLQMNSLRAEDTAVYYCARSFRGGYYYGMDVWGQGTTVTVSS
VL: DIQLTQSPSFLSASVGDRVTITCRASQGISSYLAWYQQKPGKAPKLLIYAASTLQSGVPSRFSGSGSGTEFTLTISSLQPEDFATYYCQQLNSYPLFTFGPGTKVDIK
As for B19, the “median fluorescence fold” value in test [6] stood at 10.7 fold over isotype.

B20: antibody 562 (antibody, V domains shown)
VH: QVQLVESGGGVVQPGRSLRLSCAASGFTFSSYAMHWVRQAPGKGLEWVAVISYDGSNKYYADSVKGRFTISRDNSKNTLYLQMNSLRAEDTAVYYCARASSGGYQGPFDPWGQGTLVTVSS
VL: QSALTQPASVSGSPGQSITISCTGTSSDVGGYNYVSWYQQHPGKAPKLMIYDVSNRPSGVSNRFSGSKSGNTASLTISGLQAEDEADYYCSSYTSSSTLLYVFGTGTKVTVLG
As for B20, the Kd in test [3] was 0.173 nM; in test [4], 0.138 nM.
